Columns and labels:
SNX14 = molecular target: T1, SNX14 (human, UniProt Q9Y5W7 1-946, limits assumed); assay: IP/MS, LZTR1 wild type-FLAG, U87
T1 sequence (looked up): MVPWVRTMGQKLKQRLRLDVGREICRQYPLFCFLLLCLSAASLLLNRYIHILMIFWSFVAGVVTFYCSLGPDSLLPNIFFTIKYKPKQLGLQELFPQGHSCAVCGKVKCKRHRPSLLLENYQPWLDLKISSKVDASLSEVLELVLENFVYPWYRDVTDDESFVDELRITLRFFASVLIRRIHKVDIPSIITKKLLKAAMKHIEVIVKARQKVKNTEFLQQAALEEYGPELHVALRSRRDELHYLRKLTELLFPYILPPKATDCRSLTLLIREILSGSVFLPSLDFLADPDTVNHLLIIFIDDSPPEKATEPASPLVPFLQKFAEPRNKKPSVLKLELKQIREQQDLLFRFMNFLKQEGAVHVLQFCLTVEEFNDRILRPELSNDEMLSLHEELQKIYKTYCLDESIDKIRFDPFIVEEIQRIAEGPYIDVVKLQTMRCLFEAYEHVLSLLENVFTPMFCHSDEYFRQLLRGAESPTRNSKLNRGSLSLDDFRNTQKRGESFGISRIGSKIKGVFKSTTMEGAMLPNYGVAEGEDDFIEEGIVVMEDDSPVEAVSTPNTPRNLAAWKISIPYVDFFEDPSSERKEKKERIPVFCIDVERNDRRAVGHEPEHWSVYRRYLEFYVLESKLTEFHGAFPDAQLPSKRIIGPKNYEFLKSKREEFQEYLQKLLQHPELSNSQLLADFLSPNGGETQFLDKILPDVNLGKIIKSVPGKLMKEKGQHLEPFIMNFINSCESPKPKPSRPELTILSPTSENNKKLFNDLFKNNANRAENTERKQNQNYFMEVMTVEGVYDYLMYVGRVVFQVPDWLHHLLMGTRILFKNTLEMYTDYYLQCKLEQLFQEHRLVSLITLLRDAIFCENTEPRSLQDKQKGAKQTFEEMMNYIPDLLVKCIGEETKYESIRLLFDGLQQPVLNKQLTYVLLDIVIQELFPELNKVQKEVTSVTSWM
Outline: (§1)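 Extracted peptides in 3% acetonitrile/0.1% formic acid ran on a 50 cm C18 column into an Orbitrap Fusion, with MaxQuant identification and spectral counting.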

INTS1 = INTS1 (human, UniProt Q8N201 1-2190); assay: IP/MS, LZTR1 wild type-FLAG, U87
Outline: as §1

AXL [1] = molecular target: T2, AXL (human, UniProt P30530 26-894, limits assumed); assay: IP/MS, U87 cells (summary of Example 1)
Procedure: (§2) Lysates were immunoprecipitated with FLAG affinity matrix and eluted with FLAG peptide. […] Protein gel slices were excised and in-gel digestion performed as previously described (83), with minor modifications. Gel slices were washed with 1:1 A cetonitrile and 100 mM ammonium bicarbonate for 30 min then dehydrated with 100% acetonitrile for 10 min until shrunk. The excess acetonitrile was then removed and the slices dried in speed-vacuum at room temperature for 10 min. Gel slices were reduced with 5 mM DTT for 30 min at 56° C. in an air thermostat, cooled down to room temperature, and alkylated with 11 mM IAA for 30 min with no light. Gel slices were then washed with 100 mM of ammonium bicarbonate and 100% acetonitrile for 10 min each. Excess acetonitrile was removed and dried in a speed-vacuum for 10 min at room temperature and the gel slices were re-hydrated in a solution of 25 ng/μl trypsin in 50 mM ammonium bicarbonate for 30 min on ice and digested overnight at 37° C. in an air thermostat. Digested peptides were collected and further extracted from gel slices in extraction buffer (1:2 ratio by volume of 5% formic acid:acetonitrile) at high speed, shaking in an air thermostat. […] The following modifications were used for protein identification and quantification: oxidation of methionine (M), acetylation of the protein N-terminus, and deamination for asparagine or glutamine (NQ).

EGFR [2] = molecular target: T3, EGFR (human, UniProt P00533 25-1210); assay: IP/MS, U87 cells (summary of Example 1)
T3 construct: also called epidermal growth factor receptor
Procedure: as §2

AXL [3] = molecular target: T2, AXL; assay: IP/MS, LZTR1 R810W-FLAG, U87; spectral counts >2-fold against wild type
Procedure: as §2, with “(NQ). […]” for “(NQ).”

EGFR [4] = molecular target: T3, EGFR; assay: as above
Procedure: as §2, with “(NQ). […]” for “(NQ).”

Measured: binding result

INTS1, sequence (Q8N201 whole entry): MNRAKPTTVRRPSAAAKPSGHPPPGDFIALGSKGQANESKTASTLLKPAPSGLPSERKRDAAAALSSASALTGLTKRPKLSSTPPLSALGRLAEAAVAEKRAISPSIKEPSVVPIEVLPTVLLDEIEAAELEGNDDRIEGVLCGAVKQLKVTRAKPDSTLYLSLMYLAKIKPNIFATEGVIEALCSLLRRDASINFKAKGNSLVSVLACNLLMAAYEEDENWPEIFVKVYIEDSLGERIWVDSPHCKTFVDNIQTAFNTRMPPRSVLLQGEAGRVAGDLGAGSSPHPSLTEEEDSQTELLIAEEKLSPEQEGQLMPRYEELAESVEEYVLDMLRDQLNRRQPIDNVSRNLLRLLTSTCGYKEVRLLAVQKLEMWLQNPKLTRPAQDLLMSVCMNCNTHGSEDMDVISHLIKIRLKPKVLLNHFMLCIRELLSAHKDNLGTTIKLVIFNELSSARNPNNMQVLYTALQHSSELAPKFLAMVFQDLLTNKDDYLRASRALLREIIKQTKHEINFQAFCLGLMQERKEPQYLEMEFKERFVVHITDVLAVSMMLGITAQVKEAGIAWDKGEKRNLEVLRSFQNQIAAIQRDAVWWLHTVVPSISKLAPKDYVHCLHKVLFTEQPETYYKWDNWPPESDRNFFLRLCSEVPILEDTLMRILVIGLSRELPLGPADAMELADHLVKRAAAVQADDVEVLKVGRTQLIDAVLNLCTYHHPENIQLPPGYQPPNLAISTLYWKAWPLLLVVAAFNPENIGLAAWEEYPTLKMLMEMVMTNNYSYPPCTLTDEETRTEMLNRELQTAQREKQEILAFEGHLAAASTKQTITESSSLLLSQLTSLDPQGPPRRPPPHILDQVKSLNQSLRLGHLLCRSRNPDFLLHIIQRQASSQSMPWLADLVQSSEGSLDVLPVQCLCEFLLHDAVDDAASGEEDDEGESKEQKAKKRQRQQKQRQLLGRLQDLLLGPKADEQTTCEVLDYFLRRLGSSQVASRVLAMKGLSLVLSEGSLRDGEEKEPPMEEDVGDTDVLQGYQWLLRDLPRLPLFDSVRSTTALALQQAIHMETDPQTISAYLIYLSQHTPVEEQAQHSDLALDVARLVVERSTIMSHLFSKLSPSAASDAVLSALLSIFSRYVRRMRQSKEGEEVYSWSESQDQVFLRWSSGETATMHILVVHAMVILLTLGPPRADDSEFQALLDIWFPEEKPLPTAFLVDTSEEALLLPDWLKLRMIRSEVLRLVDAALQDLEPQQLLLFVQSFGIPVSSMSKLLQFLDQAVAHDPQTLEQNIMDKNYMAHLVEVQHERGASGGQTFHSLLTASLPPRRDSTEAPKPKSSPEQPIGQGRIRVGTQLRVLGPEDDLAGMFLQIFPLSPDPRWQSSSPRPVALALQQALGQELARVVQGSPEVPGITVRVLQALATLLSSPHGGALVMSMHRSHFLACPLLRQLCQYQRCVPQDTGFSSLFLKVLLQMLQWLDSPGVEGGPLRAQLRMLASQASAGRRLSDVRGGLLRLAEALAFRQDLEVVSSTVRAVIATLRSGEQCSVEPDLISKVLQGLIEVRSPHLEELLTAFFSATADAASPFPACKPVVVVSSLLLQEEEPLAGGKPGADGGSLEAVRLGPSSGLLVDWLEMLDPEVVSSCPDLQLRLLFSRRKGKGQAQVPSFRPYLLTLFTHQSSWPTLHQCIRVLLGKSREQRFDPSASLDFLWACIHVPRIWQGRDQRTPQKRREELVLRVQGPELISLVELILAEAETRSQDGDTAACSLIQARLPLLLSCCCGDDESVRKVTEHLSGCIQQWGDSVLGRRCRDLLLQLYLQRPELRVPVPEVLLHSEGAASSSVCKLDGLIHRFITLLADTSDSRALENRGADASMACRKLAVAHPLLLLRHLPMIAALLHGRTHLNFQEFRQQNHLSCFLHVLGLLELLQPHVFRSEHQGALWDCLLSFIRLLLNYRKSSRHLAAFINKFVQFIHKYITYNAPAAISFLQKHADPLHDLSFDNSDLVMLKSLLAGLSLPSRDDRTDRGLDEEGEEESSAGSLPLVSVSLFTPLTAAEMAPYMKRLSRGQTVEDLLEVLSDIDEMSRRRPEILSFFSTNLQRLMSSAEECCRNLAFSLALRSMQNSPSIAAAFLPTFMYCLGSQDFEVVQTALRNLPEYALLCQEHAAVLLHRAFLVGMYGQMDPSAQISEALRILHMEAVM

B1: LZTR1-FLAG (other, human, UniProt Q8N653 1-840, looked up)
chain: MAGPGSTGGQIGAAALAGGARSKVAPSVDFDHSCSDSVEYLTLNFGPFETVHRWRRLPPCDEFVGARRSKHTVVAYKDAIYVFGGDNGKTMLNDLLRFDVKDCSWCRAFTTGTPPAPRYHHSAVVYGSSMFVFGGYTGDIYSNSNLKNKNDLFEYKFATGQWTEWKIEGRLPVARSAHGATVYSDKLWIFAGYDGNARLNDMWTIGLQDRELTCWEEVAQSGEIPPSCCNFPVAVCRDKMFVFSGQSGAKITNNLFQFEFKDKTWTRIPTEHLLRGSPPPPQRRYGHTMVAFDRHLYVFGGAADNTLPNELHCYDVDFQTWEVVQPSSDSEVGGAEVPERACASEEVPTLTYEERVGFKKSRDVFGLDFGTTSAKQPTQPASELPSGRLFHAAAVISDAMYIFGGTVDNNIRSGEMYRFQFSCYPKCTLHEDYGRLWESRQFCDVEFVLGEKEECVQGHVAIVTARSRWLRRKITQARERLAQKLEQEAAPVPREAPGVAAGGARPPLLHVAIREAEARPFEVLMQFLYTDKIKYPRKGHVEDVLLIMDVYKLALSFQLCRLEQLCRQYIEASVDLQNVLVVCESAARLQLSQLKEHCLNFVVKESHFNQVIMMKEFERLSSPLIVEIVRRKQQPPPRTPLDQPVDIGTSLIQDMKAYLEGAGAEFCDITLLLDGHPRPAHKAILAARSSYFEAMFRSFMPEDGQVNISIGEMVPSRQAFESMLRYIYYGEVNMPPEDSLYLFAAPYYYGFYNNRLQAYCKQNLEMNVTVQNVLQILEAADKTQALDMKRHCLHIIVHQFTKVSKLPTLRSLSQQLLLDIIDSLASHISDKQCAELGADI
notes: Expressed in HEK 293T, HeLa or U87 cells; used as cell lysate; also called LZTR1 wild type-FLAG; LZTR1 WT; not shown: FLAG tag at the C-terminus
binds: SNX14 | INTS1 | AXL [1] | EGFR [2]

B2: LZTR1 R810W-FLAG (other, human, UniProt Q8N653 1-840, looked up)
chain: MAGPGSTGGQIGAAALAGGARSKVAPSVDFDHSCSDSVEYLTLNFGPFETVHRWRRLPPCDEFVGARRSKHTVVAYKDAIYVFGGDNGKTMLNDLLRFDVKDCSWCRAFTTGTPPAPRYHHSAVVYGSSMFVFGGYTGDIYSNSNLKNKNDLFEYKFATGQWTEWKIEGRLPVARSAHGATVYSDKLWIFAGYDGNARLNDMWTIGLQDRELTCWEEVAQSGEIPPSCCNFPVAVCRDKMFVFSGQSGAKITNNLFQFEFKDKTWTRIPTEHLLRGSPPPPQRRYGHTMVAFDRHLYVFGGAADNTLPNELHCYDVDFQTWEVVQPSSDSEVGGAEVPERACASEEVPTLTYEERVGFKKSRDVFGLDFGTTSAKQPTQPASELPSGRLFHAAAVISDAMYIFGGTVDNNIRSGEMYRFQFSCYPKCTLHEDYGRLWESRQFCDVEFVLGEKEECVQGHVAIVTARSRWLRRKITQARERLAQKLEQEAAPVPREAPGVAAGGARPPLLHVAIREAEARPFEVLMQFLYTDKIKYPRKGHVEDVLLIMDVYKLALSFQLCRLEQLCRQYIEASVDLQNVLVVCESAARLQLSQLKEHCLNFVVKESHFNQVIMMKEFERLSSPLIVEIVRRKQQPPPRTPLDQPVDIGTSLIQDMKAYLEGAGAEFCDITLLLDGHPRPAHKAILAARSSYFEAMFRSFMPEDGQVNISIGEMVPSRQAFESMLRYIYYGEVNMPPEDSLYLFAAPYYYGFYNNRLQAYCKQNLEMNVTVQNVLQILEAADKTQALDMKRHCLHIIVHQFTKVSKLPTLWSLSQQLLLDIIDSLASHISDKQCAELGADI
notes: Stably expressed in U87 cells by lentivirus; also called LZTR1-FLAG-R810W; LZTR1 RW; not shown: FLAG tag
binds: AXL [3] | EGFR [4]
